{"source": "patent US20120064176A1", "about": "“COMPOSITION FOR PREVENTING AND TREATING FATTY LIVER” (National Chung Hsing University, priority 2008, published 2012)", "molecules": {"B1": {"name": "Lactoferrin: NZMP lactoferrin, New Zealand; a glycoprotein that is capable of combining with metal ions (protein, UniProt P24627 20-708, looked up)", "Lactotransferrin": "APRKNVRWCTISQPEWFKCRRWQWRMKKLGAPSITCVRRAFALECIRAIAEKKADAVTLDGGMVFEAGRDPYKLRPVAAEIYGTKESPQTHYYAVAVVKKGSNFQLDQLQGRKSCHTGLGRSAGWIIPMGILRPYLSWTESLEPLQGAVAKFFSASCVPCIDRQAYPNLCQLCKGEGENQCACSSREPYFGYSGAFKCLQDGAGDVAFVKETTVFENLPEKADRDQYELLCLNNSRAPVDAFKECHLAQVPSHAVVARSVDGKEDLIWKLLSKAQEKFGKNKSRSFQLFGSPPGQRDLLFKDSALGFLRIPSKVDSALYLGSRYLTTLKNLRETAEEVKARYTRVVWCAVGPEEQKKCQQWSQQSGQNVTCATASTTDDCIVLVLKGEADALNLDGGYIYTAGKCGLVPVLAENRKSSKHSSLDCVLRPTEGYLAVAVVKKANEGLTWNSLKDKKSCHTAVDRTAGWNIPMGLIVNQTGSCAFDEFFSQSCAPGADPKSRLCALCAGDDQGLDKCVPNSKEKYYGYTGAFRCLAEDVGDVAFVKNDTVWENTNGESTADWAKNLNREDFRLLCLDGTRKPVTEAQSCHLAVAPNHAVVSRSDRAAHVKQVLLHQQALFGKNGKNCPDKFCLFKSETKNLLFNDNTECLAKLGGRPTYEEYLGTEYVTAIANLKKCSTSPLLEACAFLTR"}}, "system": "C57BL/6JNarl mice", "assay": "Hepatic triglycerides after 7 weeks of lactoferrin, chromium or lactoferrin+chromium in high-fat-diet mice", "type": "in vivo", "details": "10 mice in each group", "protocol": "Male C57BL/6JNarl mice (n=70) fed with high fat diet (high-fat Rodent TestDiet, PMI International Inc., MO, USA; 67% of calories provided by fat), age 8 weeks, are randomly divided into the control group, the low-dose lactoferrin group (NZMP lactoferrin, New Zealand, 40 mg/kg BW/day), the high-dose lactoferrin group (80 mg/kg BW/day), the low-dose chromium group (CrCl3·6H2O, Sigma, Cr^+3 40 μg/kg BW/day), the high dose chromium group (Cr^+3 80 μg/kg BW/day), the low-dose lactoferrin+chromium group (lactoferrin 40 mg/kg BW/day+Cr^+3 40 μg/kg BW/day), and the high-dose lactoferrin+chromium group (lactoferrin 80 mg/kg BW/day+Cr^+3 80 μg/kg BW/day) (10 mice in each group). After supplementation for 7 weeks, the C57BL/6JNarl mice are sacrificed and their livers are harvested. Then, the level of hepatic triglycerides is analyzed. […] However, no significant difference between the other groups is found.", "data": [{"molecule": "B1", "values": [{"measurement": "Hepatic triglycerides, High-dose", "setting": "High-dose: lactoferrin 80 mg/kg BW/day and/or Cr+3 80 μg/kg BW/day", "result": "18.1 ± 7.2", "unit": "μ mol/g liver"}, {"measurement": "Hepatic triglycerides, Low-dose", "setting": "Low-dose: lactoferrin 40 mg/kg BW/day and/or Cr+3 40 μg/kg BW/day", "result": "18.4 ± 6.0", "unit": "μ mol/g liver"}]}]}
